system: Escherichia coli TOP10; test: shrunken log2 fold change of peptide-encoding DNA abundance (4.5 h post-induction vs induction); higher = less antimicrobial activity (less host growth inhibition); conditions: time post-induction: 4.5 h; library: site-saturation at positions 5, 18, 19, 20
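Also: peptides expressed intracellularly from a pBAD plasmid library in pooled LB shake-flask culture, induced with 0.3% L-arabinose, DNA abundance read by NGS, three biological replicates, DESeq2 with apeglm shrinkage.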

Sequence | shrunken log2 fold change
RRIRGRPPRLPRPRPRPYTQPRP | -0.0862
RRIRIRPPRLPRPRPRPTTFPRP | -0.688
RRIRIRPPRLPRPRPRPETFPRP | -0.202
RRIRQRPPRLPRPRPRPIYLPRP | -0.163
RRIRMRPPRLPRPRPRPKCWPRP | 1
RRIRIRPPRLPRPRPRPGQQPRP | 0.0905
RRIRWRPPRLPRPRPRPYYNPRP | -1.01
RRIRYRPPRLPRPRPRPIDKPRP | -0.00865
RRIRQRPPRLPRPRPRPRHRPRP | 0.16
RRIRDRPPRLPRPRPRPMPGPRP | 0.065
RRIRSRPPRLPRPRPRPLYPPRP | -0.813
RRIRHRPPRLPRPRPRPPRNPRP | 0.105
RRIRQRPPRLPRPRPRPTVLPRP | -0.0201
RRIRARPPRLPRPRPRPQWDPRP | 0.00442
RRIRFRPPRLPRPRPRPEFKPRP | -0.0568
RRIRWRPPRLPRPRPRPVHMPRP | -0.0785
RRIRQRPPRLPRPRPRPYTGPRP | -0.0162
RRIRDRPPRLPRPRPRPMLAPRP | 0.607
RRIRPRPPRLPRPRPRPMKGPRP | 0.15
RRIRIRPPRLPRPRPRPMCFPRP | -0.343
RRIRKRPPRLPRPRPRPYFWPRP | -0.0468
RRIRKRPPRLPRPRPRPPGHPRP | 0.377

Sequence | shrunken log2 fold change
RRIRYRPPRLPRPRPRPMQWPRP | -0.00277
RRIRGRPPRLPRPRPRPHYVPRP | -0.0585
RRIRQRPPRLPRPRPRPPGDPRP | 0.194
RRIRKRPPRLPRPRPRPEDWPRP | 2.01
RRIRRRPPRLPRPRPRPHWSPRP | -0.0676
RRIRKRPPRLPRPRPRPRQGPRP | 0.708
RRIRFRPPRLPRPRPRPRDHPRP | 0.015
RRIRDRPPRLPRPRPRPHHSPRP | -1.11
RRIRFRPPRLPRPRPRPMNNPRP | -0.501
RRIRKRPPRLPRPRPRPYQSPRP | 0.000846
RRIRCRPPRLPRPRPRPPSIPRP | 0.0499
RRIRMRPPRLPRPRPRPMMNPRP | -0.0818
RRIRDRPPRLPRPRPRPYFQPRP | -0.236
RRIRRRPPRLPRPRPRPQPWPRP | 0.067
RRIRGRPPRLPRPRPRPFSRPRP | 0.612
RRIRFRPPRLPRPRPRPANVPRP | -0.246
RRIRNRPPRLPRPRPRPCGGPRP | -0.0209
RRIRFRPPRLPRPRPRPNDVPRP | 0.0386
RRIRLRPPRLPRPRPRPMFCPRP | -0.752
RRIRFRPPRLPRPRPRPRSQPRP | -0.105
RRIRARPPRLPRPRPRPDAHPRP | 0.876
RRIRGRPPRLPRPRPRPPFPPRP | 1.17

Sequence | shrunken log2 fold change
RRIRYRPPRLPRPRPRPRENPRP | 0.0246
RRIRNRPPRLPRPRPRPIRIPRP | 0.0229
RRIRNRPPRLPRPRPRPANEPRP | -0.00326
RRIRWRPPRLPRPRPRPVREPRP | 0.0727
RRIRIRPPRLPRPRPRPDKPPRP | -0.0335
RRIRLRPPRLPRPRPRPFWGPRP | -0.507
RRIRFRPPRLPRPRPRPRWYPRP | -0.351
RRIRSRPPRLPRPRPRPGGSPRP | 0.0707
RRIRVRPPRLPRPRPRPKKGPRP | 0.13
RRIRERPPRLPRPRPRPTVFPRP | 0.0505
RRIRNRPPRLPRPRPRPLDHPRP | -0.0699
RRIRKRPPRLPRPRPRPLFQPRP | 0.181
RRIRRRPPRLPRPRPRPWWGPRP | 0.288
RRIRWRPPRLPRPRPRPYWQPRP | -0.0738
RRIRCRPPRLPRPRPRPKYKPRP | -0.834
RRIRSRPPRLPRPRPRPNAIPRP | 0.235
RRIRDRPPRLPRPRPRPEYPPRP | -0.0367
RRIRSRPPRLPRPRPRPSFEPRP | 0.0257
RRIRYRPPRLPRPRPRPYFTPRP | -0.981
RRIRERPPRLPRPRPRPICRPRP | 0.0559
RRIRDRPPRLPRPRPRPPCRPRP | -0.0227
RRIRCRPPRLPRPRPRPGMWPRP | 0.211

Sequence | shrunken log2 fold change
RRIRIRPPRLPRPRPRPVQTPRP | -0.0646
RRIRQRPPRLPRPRPRPHSSPRP | -0.271
RRIRWRPPRLPRPRPRPPGVPRP | 0.525
RRIRFRPPRLPRPRPRPCWIPRP | -0.354
RRIRMRPPRLPRPRPRPHGHPRP | 0.256
RRIRHRPPRLPRPRPRPNFMPRP | -0.5
RRIRERPPRLPRPRPRPTITPRP | -0.598
RRIRYRPPRLPRPRPRPTPPPRP | 0.421
RRIRPRPPRLPRPRPRPLTFPRP | -0.113
RRIRVRPPRLPRPRPRPGFDPRP | 0.0552
RRIRTRPPRLPRPRPRPYQPPRP | -0.0681
RRIRQRPPRLPRPRPRPELLPRP | 0.534
RRIRCRPPRLPRPRPRPNSRPRP | -0.175
RRIRIRPPRLPRPRPRPESHPRP | -0.0755
RRIRFRPPRLPRPRPRPFEPPRP | -0.0506
RRIRARPPRLPRPRPRPNEWPRP | 0.0144
RRIRCRPPRLPRPRPRPTMSPRP | -0.139
RRIRTRPPRLPRPRPRPEMPPRP | -0.0682
RRIRGRPPRLPRPRPRPFALPRP | 0.278
RRIRQRPPRLPRPRPRPVWKPRP | 0.121
RRIRVRPPRLPRPRPRPISCPRP | 0.0771
RRIRWRPPRLPRPRPRPASMPRP | -0.0478

Sequence | shrunken log2 fold change
RRIRERPPRLPRPRPRPRREPRP | 0.0467
RRIRVRPPRLPRPRPRPNTGPRP | -0.112
RRIRIRPPRLPRPRPRPMHSPRP | -0.0586
RRIRRRPPRLPRPRPRPECKPRP | -0.0282
RRIRQRPPRLPRPRPRPIYIPRP | -0.46
RRIRARPPRLPRPRPRPNPGPRP | 0.462
RRIRTRPPRLPRPRPRPSIRPRP | -0.183
RRIRIRPPRLPRPRPRPFHSPRP | -0.16
RRIRMRPPRLPRPRPRPQKWPRP | -0.00664
RRIRFRPPRLPRPRPRPCCRPRP | -0.332
RRIRYRPPRLPRPRPRPVWQPRP | -0.288
RRIRHRPPRLPRPRPRPMKYPRP | -0.0485
RRIRVRPPRLPRPRPRPWFYPRP | -0.373
RRIRKRPPRLPRPRPRPMTQPRP | -0.0547
RRIRLRPPRLPRPRPRPHVTPRP | -0.198
RRIRSRPPRLPRPRPRPFHSPRP | -0.0807
RRIRHRPPRLPRPRPRPDMKPRP | -0.0644
RRIRLRPPRLPRPRPRPWNCPRP | -0.493
RRIRQRPPRLPRPRPRPSCEPRP | 0.0555
RRIRIRPPRLPRPRPRPLDDPRP | 0.0241
RRIRRRPPRLPRPRPRPGPEPRP | 0.662

— the supplement of paper PMC9112550, “Optimization of the antimicrobial peptide Bac7 by deep mutational scanning” (BMC Biology, 2022)
